# The supplement of paper PMC7877785
# ± gives the uncertainty stated by the source.
# Assay: self-splicing fitness, log relative to wild type (ln ratio); higher = more splicing; Tetrahymena group I intron in knt gene, E. coli kanamycin selection, DiMSum; sequences stand for … in CUCUCU…GGAGGGAAAAGUUAUCAGGCAUGCACCUGGUAGCUAGUCUUUAAACCAAUAGAUUGCAUCGGUUUAAAAGGCAAGACCGUCAAAUUGCGGGAAAGGGGUCAACAGCCGUUCAGUACCAAGUCUCAGGGGAAACUUUGAGAUGGCCUUGCAAAGGGUAUGGUAAUAAGCUGACGGACAUGGUCCUAACCACGCAGCCAAGUCCUAAGUCAACAGAUCUUCUGUUGAUAUGGAUGCAGUUCACAGACUAAAUGUCGGUCGGGGAAGAUGUAUUCUUCUCAUAAGAUAUAGUCGGACCUCUCCUUAAUGGGAGCUAGCGGAUGAAGUGAUGCAACACUGGAGCCGCUGGGAACUAAUUUGUAUGCGAAAGUAUAUUGAUUAGUUUUGGAGUACUCGUGGUCG
# Summary of the method: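 Fitness was computed with DiMSum as the error-weighted combination of replicate fold changes, kanamycin versus none, each normalised to wild type. The library randomised all eight intron nucleotides of the P1ex region, with the intron placed in the knt kanamycin-resistance gene on pET-22b(+) in E. coli BL21(DE3). Six replicate transformations were grown overnight at 37°C or 30°C on LB agar with or without 25 μg/mL kanamycin, plus 100 μg/mL carbenicillin, 50 μM IPTG and 0.2% rhamnose. Pooled colonies were amplicon-sequenced on an Illumina HiSeq 2500.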
Sequence,self-splicing fitness (ln) (30 °C),self-splicing fitness (ln) (37 °C)
CCAGAGCAAUAUUACGAGAU,-4.57 ± 0.2,-3.15 ± 0.16
CCAGAGCAAUAUUACGAUAG,-1.42 ± 0.082,-1 ± 0.12
CCAGAGCAAUAUUACGCAUU,-3.53 ± 0.33,-2.22 ± 0.2
CCAGAGCAAUAUUACGCUAC,–,-1.72 ± 0.33
CCAGAGCAAUAUUACGGAAU,-3.42 ± 0.26,-2.52 ± 0.17
CCAGAGCAAUAUUACGGAGG,-2.49 ± 0.18,-1.87 ± 0.24
CCAGAGCAAUAUUACGGAUA,-3.52 ± 0.22,-1.91 ± 0.16
CCAGAGCAAUAUUACGGGGC,-3.91 ± 0.24,-2.8 ± 0.21
CCAGAGCAAUAUUACGGGGG,-3.72 ± 0.46,-2.44 ± 0.31
CCAGAGCAAUAUUACGGUGG,-3.31 ± 0.17,-3.31 ± 0.24
CCAGAGCAAUAUUACGUAUA,–,-2.35 ± 0.29
CCAGAGCAAUAUUACGUCUA,-2.37 ± 0.19,-2.23 ± 0.24
CCAGAGCAAUAUUACGUGCG,-1.59 ± 0.077,-0.888 ± 0.097
CCAGAGCAAUAUUACGUGUG,-1.69 ± 0.091,-1.54 ± 0.097
CCAGAGCAAUAUUACGUUCU,-3.71 ± 0.31,-1.84 ± 0.31
CCAGAGCAAUAUUACGUUGC,-4.54 ± 0.37,-2.11 ± 0.18
CCAUAGCAAUAUUACGAAGG,-3.26 ± 0.22,-2.87 ± 0.34
CCAUAGCAAUAUUACGACUG,-0.667 ± 0.071,-0.0816 ± 0.087
CCAUAGCAAUAUUACGAGGA,-2.97 ± 0.25,-2.05 ± 0.25
CCAUAGCAAUAUUACGAGUA,-3.41 ± 0.32,-2.06 ± 0.19
CCAUAGCAAUAUUACGAUCA,-2.94 ± 0.18,-3.23 ± 0.29
CCAUAGCAAUAUUACGAUUU,-3.31 ± 0.2,-2.37 ± 0.23
CCAUAGCAAUAUUACGCAUA,-3.76 ± 0.26,-2.72 ± 0.29
CCAUAGCAAUAUUACGCCGC,-1.47 ± 0.21,–
CCAUAGCAAUAUUACGCGCG,-0.974 ± 0.091,-0.0324 ± 0.1

Sequence,self-splicing fitness (ln) (30 °C),self-splicing fitness (ln) (37 °C)
CCAUAGCAAUAUUACGCGGU,-3.9 ± 0.23,-2.5 ± 0.26
CCAUAGCAAUAUUACGCGUG,-2.23 ± 0.095,-0.856 ± 0.085
CCAUAGCAAUAUUACGCUCG,-1.69 ± 0.1,-0.407 ± 0.13
CCAUAGCAAUAUUACGCUGU,-4.23 ± 0.39,-2.54 ± 0.29
CCAUAGCAAUAUUACGGAGA,-4.12 ± 0.28,-3.35 ± 0.29
CCAUAGCAAUAUUACGGAUA,-2.94 ± 0.21,-1.81 ± 0.21
CCAUAGCAAUAUUACGGCAU,-4.02 ± 0.24,-1.78 ± 0.2
CCAUAGCAAUAUUACGGGAG,-2.96 ± 0.15,-2.89 ± 0.25
CCAUAGCAAUAUUACGGUCU,-3.96 ± 0.33,-2.53 ± 0.28
CCAUAGCAAUAUUACGUACU,-4.18 ± 0.29,-2.3 ± 0.18
CCAUAGCAAUAUUACGUAGA,-3.86 ± 0.17,-2.53 ± 0.16
CCAUAGCAAUAUUACGUCAC,-3.48 ± 0.28,–
CCAUAGCAAUAUUACGUGAG,-0.355 ± 0.045,0.00486 ± 0.066
CCAUAGCAAUAUUACGUGCG,-2.49 ± 0.15,-0.772 ± 0.15
CCAUAGCAAUAUUACGUUAU,-3.34 ± 0.14,-3.31 ± 0.21
CCAUAGCAAUAUUACGUUUA,-3.25 ± 0.23,-2.68 ± 0.25
CCCAAGCAAUAUUACGACAG,-4.22 ± 0.15,-2.39 ± 0.12
CCCAAGCAAUAUUACGACUA,-2.52 ± 0.17,-2.31 ± 0.18
CCCAAGCAAUAUUACGAGGA,-1.42 ± 0.078,-0.592 ± 0.074
CCCAAGCAAUAUUACGAUAA,-3.19 ± 0.14,-3.49 ± 0.2
CCCAAGCAAUAUUACGAUUC,-3.69 ± 0.25,-2.1 ± 0.26
CCCAAGCAAUAUUACGCACU,-3.57 ± 0.19,-2.72 ± 0.25
CCCAAGCAAUAUUACGCAGU,-3.15 ± 0.14,-2.32 ± 0.18
CCCAAGCAAUAUUACGCAUA,-3.47 ± 0.19,-2.49 ± 0.17
